From paper PMC6687201, “Atg11 tethers Atg9 vesicles to initiate selective autophagy” (PLoS Biology, 2019)

T1: Atg9^core reconstituted in proteoliposomes (yeast, UniProt Q12142 281-779)
T1 sequence (looked up): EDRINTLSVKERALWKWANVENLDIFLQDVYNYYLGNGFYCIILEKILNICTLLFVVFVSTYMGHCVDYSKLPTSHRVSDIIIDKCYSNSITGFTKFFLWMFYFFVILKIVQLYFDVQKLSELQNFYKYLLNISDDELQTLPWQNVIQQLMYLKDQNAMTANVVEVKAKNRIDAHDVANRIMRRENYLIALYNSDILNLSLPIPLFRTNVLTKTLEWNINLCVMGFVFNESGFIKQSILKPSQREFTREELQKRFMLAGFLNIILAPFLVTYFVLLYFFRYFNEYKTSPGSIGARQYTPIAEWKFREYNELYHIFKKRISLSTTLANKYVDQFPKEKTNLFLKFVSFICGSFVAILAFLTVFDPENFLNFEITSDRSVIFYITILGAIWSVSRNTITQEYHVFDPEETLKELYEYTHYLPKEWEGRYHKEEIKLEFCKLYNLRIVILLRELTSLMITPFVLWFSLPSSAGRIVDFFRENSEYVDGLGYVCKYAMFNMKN

T2: myc-tagged full length Atg11 (S. cerevisiae, UniProt Q12527 1-1178)
T2 construct: Atg11, scaffolding protein of selective autophagy, yeast; also called Atg11-myc; myc-Atg11; source: yeast cells expressing myc-tagged Atg11, in lysate
T2 sequence (looked up): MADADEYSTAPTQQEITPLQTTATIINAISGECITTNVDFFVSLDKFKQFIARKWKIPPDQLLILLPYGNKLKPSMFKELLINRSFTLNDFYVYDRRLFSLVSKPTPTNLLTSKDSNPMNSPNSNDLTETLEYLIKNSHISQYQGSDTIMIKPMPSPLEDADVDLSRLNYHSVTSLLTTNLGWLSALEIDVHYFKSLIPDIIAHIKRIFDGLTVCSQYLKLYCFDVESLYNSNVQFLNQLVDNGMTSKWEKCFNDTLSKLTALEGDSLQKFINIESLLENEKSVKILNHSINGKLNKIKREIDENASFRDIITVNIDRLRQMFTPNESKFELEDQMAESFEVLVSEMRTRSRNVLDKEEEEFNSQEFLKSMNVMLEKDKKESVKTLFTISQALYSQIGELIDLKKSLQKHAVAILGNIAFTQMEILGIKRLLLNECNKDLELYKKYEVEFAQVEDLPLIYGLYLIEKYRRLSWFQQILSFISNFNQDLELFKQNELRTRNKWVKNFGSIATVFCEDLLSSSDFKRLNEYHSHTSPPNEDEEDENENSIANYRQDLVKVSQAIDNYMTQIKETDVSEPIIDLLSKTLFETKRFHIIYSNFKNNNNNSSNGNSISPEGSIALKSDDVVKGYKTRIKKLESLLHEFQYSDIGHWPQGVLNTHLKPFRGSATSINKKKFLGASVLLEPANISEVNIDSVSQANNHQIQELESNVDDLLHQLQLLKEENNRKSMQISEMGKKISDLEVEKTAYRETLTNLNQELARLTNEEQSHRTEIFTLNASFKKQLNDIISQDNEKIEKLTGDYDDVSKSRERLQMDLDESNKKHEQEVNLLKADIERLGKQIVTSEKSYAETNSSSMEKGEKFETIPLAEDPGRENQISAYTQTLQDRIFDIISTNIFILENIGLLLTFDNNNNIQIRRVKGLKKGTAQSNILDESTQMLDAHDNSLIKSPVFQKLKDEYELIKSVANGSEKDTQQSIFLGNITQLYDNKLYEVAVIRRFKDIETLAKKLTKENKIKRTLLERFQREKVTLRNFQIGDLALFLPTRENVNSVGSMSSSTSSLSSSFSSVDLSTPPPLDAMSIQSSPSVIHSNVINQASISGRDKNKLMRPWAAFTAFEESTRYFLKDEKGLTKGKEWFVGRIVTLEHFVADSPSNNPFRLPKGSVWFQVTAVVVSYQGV

B1: recombinant purified Atg17 (natural protein, yeast, UniProt Q06410 1-417, looked up)
chain: MNEADVTKFVNNARKTLTDAQLLCSSANLRIVDIKKKLSSWQLSISKLNFLIVGLRQQGKFLYTILKEGIGTKLIQKQWNQAVLVVLVDEMKYWQYEITSKVQRLDGIVNELSISEKDDTDPSKLGDYISRDNVNLLNDKLKEVPVIERQIENIKLQYENMVRKVNKELIDTKLTDVTQKFQSKFGIDNLMETNVAEQFSRELTDLEKDLAEIMNSLTQHFDKTLLLQDKKIDNDEREELFKVVQGDDKELYNIFKTLHEVIDDVDKTILNLGQFLQAKIKEKTELHSEVSEIINDFNRNLEYLLIFKDISNLIDSFKNSCTQDIQTTKELCEFYDNFEESYGNLVLEAKRRKDVANRMKTILKDCEKQLQNLDAQDQEERQNFIAENGTYLPETIWPGKIDDFSSLYTLNYNVKNP
notes: Atg17, scaffolding protein of nonselective autophagy, yeast
B2: recombinant purified Atg11^ΔC (residues 1-667) (domain or fragment, yeast, UniProt Q12527 1-667, looked up)
chain: MADADEYSTAPTQQEITPLQTTATIINAISGECITTNVDFFVSLDKFKQFIARKWKIPPDQLLILLPYGNKLKPSMFKELLINRSFTLNDFYVYDRRLFSLVSKPTPTNLLTSKDSNPMNSPNSNDLTETLEYLIKNSHISQYQGSDTIMIKPMPSPLEDADVDLSRLNYHSVTSLLTTNLGWLSALEIDVHYFKSLIPDIIAHIKRIFDGLTVCSQYLKLYCFDVESLYNSNVQFLNQLVDNGMTSKWEKCFNDTLSKLTALEGDSLQKFINIESLLENEKSVKILNHSINGKLNKIKREIDENASFRDIITVNIDRLRQMFTPNESKFELEDQMAESFEVLVSEMRTRSRNVLDKEEEEFNSQEFLKSMNVMLEKDKKESVKTLFTISQALYSQIGELIDLKKSLQKHAVAILGNIAFTQMEILGIKRLLLNECNKDLELYKKYEVEFAQVEDLPLIYGLYLIEKYRRLSWFQQILSFISNFNQDLELFKQNELRTRNKWVKNFGSIATVFCEDLLSSSDFKRLNEYHSHTSPPNEDEEDENENSIANYRQDLVKVSQAIDNYMTQIKETDVSEPIIDLLSKTLFETKRFHIIYSNFKNNNNNSSNGNSISPEGSIALKSDDVVKGYKTRIKKLESLLHEFQYSDIGHWPQGVLNTHLKPFRGSA
notes: Atg11, yeast, N-terminal fragment, residues 1-667; expressed from pCoofy37-Atg11^ΔC; molecular weight 78.2 kDa; Made from the same vector as full-length Atg11, so it may also carry a C-terminal His6 tag and an N-terminal Gly-Pro; also called purified Atg17-like domain of Atg11; source: E. coli BL21 (DE3), coexpressed with chaperones from pG-KJE8, purified
B3: HA-tagged Atg9 (natural protein, S. cerevisiae, UniProt Q12142 1-997, looked up)
chain: MERDEYQLPNSHGKNTFLSRIFGLQSDEVNPSLNSQEMSNFPLPDIERGSSLLHSTNDSREDVDENDLRVPESDQGTSTEEEDEVDEEQVQAYAPQISDGLDGDHQLNSVTSKENVLETEKSNLERLVEGSTDDSVPKVGQLSSEEEEDNEFINNDGFDDDTPLFQKSKIHEFSSKKSNTIEDGKRPLFFRHILQNNRPQRDTQKLFTSSNAIHHDKDKSANNGPRNINGNQKHGTKYFGSATQPRFTGSPLNNTNRFTKLFPLRKPNLLSNISVLNNTPEDRINTLSVKERALWKWANVENLDIFLQDVYNYYLGNGFYCIILEKILNICTLLFVVFVSTYMGHCVDYSKLPTSHRVSDIIIDKCYSNSITGFTKFFLWMFYFFVILKIVQLYFDVQKLSELQNFYKYLLNISDDELQTLPWQNVIQQLMYLKDQNAMTANVVEVKAKNRIDAHDVANRIMRRENYLIALYNSDILNLSLPIPLFRTNVLTKTLEWNINLCVMGFVFNESGFIKQSILKPSQREFTREELQKRFMLAGFLNIILAPFLVTYFVLLYFFRYFNEYKTSPGSIGARQYTPIAEWKFREYNELYHIFKKRISLSTTLANKYVDQFPKEKTNLFLKFVSFICGSFVAILAFLTVFDPENFLNFEITSDRSVIFYITILGAIWSVSRNTITQEYHVFDPEETLKELYEYTHYLPKEWEGRYHKEEIKLEFCKLYNLRIVILLRELTSLMITPFVLWFSLPSSAGRIVDFFRENSEYVDGLGYVCKYAMFNMKNIDGEDTHSMDEDSLTKKIAVNGSHTLNSKRRSKFTAEDHSDKDLANNKMLQSYVYFMDDYSNSENLTGKYQLPAKKGYPNNEGDSFLNNKYSWRKQFQPGQKPELFRIGKHALGPGHNISPAIYSTRNPGKNWDNNNNGDDIKNGTNNATAKNDDNNGNNDHEYVLTESFLDSGAFPNHDVIDHNKMLNSNYNGNGILNKGGVLGLVKEYYKKSDVGR
notes: Atg9, transmembrane autophagy protein, yeast; also called HA-Atg9; source: yeast cells expressing HA-tagged Atg9, in lysate

Experiments:
[1] = molecular target: T1, Atg9^core reconstituted in …; experiment: cell-based or functional assay
[2] = molecular target: T1, Atg9^core reconstituted in …; experiment: co-floatation with proteoliposomes; competition: Atg11 and Atg17 coincubated with Atg9-PLs at different stoichiometric ratios (Atg11 kept constant); floated fraction on SDS-PAGE, amounts from band intensities; details: both partners purified
HA-tagged Atg9 = molecular target: B3; experiment: co-IP; competition: purified Atg17 (0, 1, 4 μM) added to lysates of nonstarved cells; IP of Atg11-myc, HA-Atg9 detected by blot; details: one partner purified
[3] = molecular target: the molecule itself; experiment: SEC; purified Atg11^ΔC on a Superose 6 column
[4] = molecular target: T2, myc-tagged full length Atg11; experiment: co-IP; IP of myc-tagged Atg11 (anti-myc, Protein A magnetic beads), co-IP of HA-tagged Atg9; lysates of WT, atg13Δ, atg17Δ, atg29Δ and atg31Δ cells, log phase and starved; 25 mM Tris-HCl pH 7.2, 150 mM NaCl, 0.2% NP-40; details: partners not purified

Binder: B1
- hydrodynamic radius of Atg9 vesicles against control SUVs in the presence of Atg17 (dynamic light scattering; vesicle tethering) [1]: 2 fold
- molar excess of Atg17 over Atg11 for similar recovery of both [2]: 25 fold
- molar excess of Atg17 over Atg11 for equal binding to Atg9 (HA-tagged Atg9): 25 fold

Binder: B2
- stoichiometry N [3]: 2

Binder: B3
- fold binding in atg17Δ against wild-type cells, upon starvation [4]: 4.1 fold
